{"source": "the Human Domainome abundance scans (Beltran et al. 2025)", "parents": {"B1": {"name": "V(D)J recombination-activating protein 2, residues 415 to 491; numbered along this chain, P55895 (parent)", "chain": "YWITCCPTCDVDINTWVPFYSTELNKPAMIYCSHGDGHWVHAQCMDLAERTLIHLSAGSNKYYCNEHVEIARALHTP"}}, "note": "± gives the uncertainty stated by the source.", "data": [{"variants_of": "B1", "experiment": "abundance fitness (aPCA) (normalised: wild type 0, dead -1); higher = more abundant; growth selection in yeast, the domain comes from the species named", "details": "Homo sapiens", "values": [{"variant": "D46Y", "abundance fitness": "-0.113 ± 0.12"}, {"variant": "D46G", "abundance fitness": "-0.03 ± 0.055"}, {"variant": "T22F", "abundance fitness": "-0.181 ± 0.16"}, {"variant": "S21M", "abundance fitness": "-0.321 ± 0.44"}, {"variant": "S21R", "abundance fitness": "-0.111 ± 0.12"}, {"variant": "G37S", "abundance fitness": "-0.839 ± 0.21"}, {"variant": "K61W", "abundance fitness": "-0.159 ± 0.2"}, {"variant": "K61C", "abundance fitness": "-0.098 ± 0.18"}, {"variant": "K61G", "abundance fitness": "0.06 ± 0.12"}, {"variant": "P18N", "abundance fitness": "-0.453 ± 0.27"}, {"variant": "P18G", "abundance fitness": "-0.36 ± 0.2"}, {"variant": "P18L", "abundance fitness": "-0.038 ± 0.25"}, {"variant": "P7D", "abundance fitness": "0.002 ± 0.28"}, {"variant": "M45N", "abundance fitness": "-0.016 ± 0.18"}, {"variant": "M45F", "abundance fitness": "-0.231 ± 0.091"}, {"variant": "C64Y", "abundance fitness": "-0.712 ± 0.28"}, {"variant": "C64E", "abundance fitness": "-1.05 ± 0.25"}, {"variant": "D12P", "abundance fitness": "-0.392 ± 0.21"}, {"variant": "D12R", "abundance fitness": "0.107 ± 0.12"}, {"variant": "D12F", "abundance fitness": "-0.244 ± 0.38"}, {"variant": "D12W", "abundance fitness": "-0.317 ± 0.28"}, {"variant": "A71W", "abundance fitness": "-0.207 ± 0.18"}, {"variant": "A71H", "abundance fitness": "-0.179 ± 0.12"}, {"variant": "A57T", "abundance fitness": "-0.121 ± 0.12"}, {"variant": "Y1V", "abundance fitness": "-0.008 ± 0.08"}, {"variant": "Y1M", "abundance fitness": "-0.041 ± 0.089"}, {"variant": "Y1G", "abundance fitness": "-0.102 ± 0.075"}, {"variant": "Y1E", "abundance fitness": "-0.063 ± 0.2"}, {"variant": "Y62L", "abundance fitness": "-0.304 ± 0.072"}, {"variant": "Y62H", "abundance fitness": "-0.377 ± 0.14"}, {"variant": "I3V", "abundance fitness": "-0.053 ± 0.042"}, {"variant": "I3A", "abundance fitness": "-0.057 ± 0.042"}, {"variant": "S59C", "abundance fitness": "-0.005 ± 0.1"}, {"variant": "S59Q", "abundance fitness": "-0.224 ± 0.077"}, {"variant": "S59M", "abundance fitness": "-0.042 ± 0.09"}, {"variant": "G35I", "abundance fitness": "-0.07 ± 0.3"}, {"variant": "Y31C", "abundance fitness": "-0.039 ± 0.14"}, {"variant": "M29L", "abundance fitness": "0.072 ± 0.19"}, {"variant": "L47G", "abundance fitness": "-0.458 ± 0.04"}, {"variant": "L47P", "abundance fitness": "-0.684 ± 0.09"}, {"variant": "C6L", "abundance fitness": "-0.284 ± 0.33"}, {"variant": "G58D", "abundance fitness": "0.016 ± 0.096"}, {"variant": "Q43L", "abundance fitness": "-0.196 ± 0.12"}, {"variant": "Q43R", "abundance fitness": "0.129 ± 0.17"}, {"variant": "A42E", "abundance fitness": "-0.883 ± 0.14"}, {"variant": "A42C", "abundance fitness": "-0.118 ± 0.077"}, {"variant": "A42G", "abundance fitness": "-0.115 ± 0.05"}, {"variant": "A42P", "abundance fitness": "-0.717 ± 0.15"}, {"variant": "V17P", "abundance fitness": "-0.375 ± 0.49"}, {"variant": "V17R", "abundance fitness": "-0.022 ± 0.13"}, {"variant": "V17N", "abundance fitness": "-0.687 ± 0.44"}, {"variant": "V17Q", "abundance fitness": "0.074 ± 0.19"}, {"variant": "I70R", "abundance fitness": "0.015 ± 0.03"}, {"variant": "I70H", "abundance fitness": "-0.205 ± 0.23"}, {"variant": "I70Y", "abundance fitness": "0.064 ± 0.14"}, {"variant": "I70D", "abundance fitness": "0.112 ± 0.14"}, {"variant": "I70Q", "abundance fitness": "-0.036 ± 0.089"}, {"variant": "I70S", "abundance fitness": "-0.145 ± 0.14"}, {"variant": "P27G", "abundance fitness": "-1.09 ± 0.27"}, {"variant": "P27R", "abundance fitness": "-0.973 ± 0.2"}, {"variant": "P27A", "abundance fitness": "-0.776 ± 0.44"}, {"variant": "P27D", "abundance fitness": "-1.01 ± 0.41"}, {"variant": "A28R", "abundance fitness": "-0.214 ± 0.16"}, {"variant": "A28N", "abundance fitness": "0.078 ± 0.33"}, {"variant": "A28D", "abundance fitness": "-0.318 ± 0.13"}, {"variant": "T8S", "abundance fitness": "0.129 ± 0.24"}, {"variant": "H34M", "abundance fitness": "-0.046 ± 0.13"}, {"variant": "H34G", "abundance fitness": "-0.007 ± 0.056"}, {"variant": "H34Q", "abundance fitness": "0.051 ± 0.085"}, {"variant": "N60R", "abundance fitness": "-0.058 ± 0.056"}, {"variant": "N60W", "abundance fitness": "-0.207 ± 0.096"}, {"variant": "N60H", "abundance fitness": "-0.084 ± 0.054"}, {"variant": "R72T", "abundance fitness": "0.056 ± 0.08"}, {"variant": "R72P", "abundance fitness": "0.01 ± 0.1"}, {"variant": "R72E", "abundance fitness": "-0.042 ± 0.12"}, {"variant": "R72N", "abundance fitness": "0.059 ± 0.21"}, {"variant": "I30R", "abundance fitness": "-0.322 ± 0.22"}, {"variant": "S56K", "abundance fitness": "0.029 ± 0.1"}, {"variant": "W16C", "abundance fitness": "-0.553 ± 0.23"}, {"variant": "H67M", "abundance fitness": "-0.579 ± 0.053"}, {"variant": "H67K", "abundance fitness": "-0.388 ± 0.081"}, {"variant": "H67T", "abundance fitness": "-0.22 ± 0.076"}, {"variant": "H75G", "abundance fitness": "0.087 ± 0.11"}, {"variant": "E49S", "abundance fitness": "-0.243 ± 0.069"}, {"variant": "E49L", "abundance fitness": "-0.124 ± 0.044"}, {"variant": "A48K", "abundance fitness": "-0.011 ± 0.076"}, {"variant": "A48I", "abundance fitness": "0.041 ± 0.11"}, {"variant": "A48Y", "abundance fitness": "-0.092 ± 0.13"}, {"variant": "A48S", "abundance fitness": "-0.066 ± 0.067"}, {"variant": "A48N", "abundance fitness": "-0.339 ± 0.27"}, {"variant": "L55E", "abundance fitness": "-0.051 ± 0.093"}, {"variant": "L55M", "abundance fitness": "-0.026 ± 0.066"}, {"variant": "L55P", "abundance fitness": "-0.218 ± 0.078"}, {"variant": "E66I", "abundance fitness": "-0.17 ± 0.11"}, {"variant": "E66T", "abundance fitness": "-0.063 ± 0.13"}, {"variant": "E66P", "abundance fitness": "-0.231 ± 0.08"}, {"variant": "E66F", "abundance fitness": "-0.193 ± 0.22"}, {"variant": "D10A", "abundance fitness": "0.065 ± 0.14"}, {"variant": "D10N", "abundance fitness": "0.033 ± 0.14"}, {"variant": "T76S", "abundance fitness": "-0.046 ± 0.077"}, {"variant": "T76V", "abundance fitness": "-0.074 ± 0.064"}, {"variant": "T76W", "abundance fitness": "-0.321 ± 0.11"}, {"variant": "K26M", "abundance fitness": "-0.597 ± 0.35"}, {"variant": "K26S", "abundance fitness": "-0.174 ± 0.28"}, {"variant": "K26P", "abundance fitness": "-0.786 ± 0.36"}, {"variant": "Y63E", "abundance fitness": "-0.068 ± 0.077"}, {"variant": "Y63G", "abundance fitness": "-0.377 ± 0.081"}, {"variant": "Y63V", "abundance fitness": "-0.051 ± 0.069"}, {"variant": "N65I", "abundance fitness": "0.185 ± 0.13"}, {"variant": "N65P", "abundance fitness": "0.016 ± 0.11"}, {"variant": "N65Y", "abundance fitness": "-0.318 ± 0.36"}, {"variant": "T4N", "abundance fitness": "0.012 ± 0.091"}, {"variant": "T4W", "abundance fitness": "-0.297 ± 0.07"}, {"variant": "T4R", "abundance fitness": "-0.013 ± 0.035"}, {"variant": "T4Q", "abundance fitness": "-0.185 ± 0.077"}, {"variant": "A73W", "abundance fitness": "-0.104 ± 0.086"}, {"variant": "A73V", "abundance fitness": "-0.257 ± 0.071"}, {"variant": "A73L", "abundance fitness": "0.053 ± 0.084"}, {"variant": "A73G", "abundance fitness": "0.096 ± 0.071"}, {"variant": "Y20M", "abundance fitness": "-0.383 ± 0.27"}, {"variant": "Y20G", "abundance fitness": "-0.28 ± 0.15"}, {"variant": "T51S", "abundance fitness": "-0.039 ± 0.073"}, {"variant": "T51M", "abundance fitness": "-0.133 ± 0.088"}, {"variant": "T51I", "abundance fitness": "-0.138 ± 0.12"}, {"variant": "H54T", "abundance fitness": "-0.12 ± 0.083"}, {"variant": "H54A", "abundance fitness": "0.004 ± 0.066"}, {"variant": "H54K", "abundance fitness": "0.112 ± 0.13"}, {"variant": "H54E", "abundance fitness": "0.02 ± 0.081"}, {"variant": "N14Q", "abundance fitness": "-0.332 ± 0.29"}, {"variant": "V40D", "abundance fitness": "-0.555 ± 0.43"}, {"variant": "V40L", "abundance fitness": "-0.043 ± 0.062"}, {"variant": "H38V", "abundance fitness": "-0.776 ± 0.31"}, {"variant": "H38Y", "abundance fitness": "-0.543 ± 0.46"}, {"variant": "L24W", "abundance fitness": "-0.305 ± 0.14"}, {"variant": "L24E", "abundance fitness": "0.296 ± 0.38"}, {"variant": "L24C", "abundance fitness": "0.027 ± 0.096"}, {"variant": "L24T", "abundance fitness": "-0.081 ± 0.22"}, {"variant": "L24A", "abundance fitness": "-0.164 ± 0.15"}, {"variant": "W39V", "abundance fitness": "-0.193 ± 0.034"}, {"variant": "W39S", "abundance fitness": "-0.209 ± 0.039"}, {"variant": "L74Q", "abundance fitness": "-0.062 ± 0.25"}, {"variant": "R50E", "abundance fitness": "0.039 ± 0.076"}, {"variant": "R50H", "abundance fitness": "0.037 ± 0.14"}, {"variant": "L52I", "abundance fitness": "-0.186 ± 0.14"}, {"variant": "I53N", "abundance fitness": "0.244 ± 0.49"}, {"variant": "I53L", "abundance fitness": "-0.02 ± 0.076"}, {"variant": "W2H", "abundance fitness": "-0.11 ± 0.19"}, {"variant": "W2P", "abundance fitness": "-0.299 ± 0.14"}, {"variant": "W2V", "abundance fitness": "-0.853 ± 0.11"}, {"variant": "I13L", "abundance fitness": "-0.098 ± 0.14"}, {"variant": "E69G", "abundance fitness": "0 ± 0.1"}, {"variant": "E69R", "abundance fitness": "0.035 ± 0.087"}, {"variant": "C44G", "abundance fitness": "-1.01 ± 0.11"}, {"variant": "C44A", "abundance fitness": "-1.02 ± 0.13"}, {"variant": "C44R", "abundance fitness": "-1.02 ± 0.1"}, {"variant": "C44T", "abundance fitness": "-0.556 ± 0.091"}, {"variant": "F19C", "abundance fitness": "-0.186 ± 0.2"}, {"variant": "F19S", "abundance fitness": "-0.154 ± 0.29"}, {"variant": "F19N", "abundance fitness": "0.191 ± 0.46"}, {"variant": "F19R", "abundance fitness": "-0.145 ± 0.12"}, {"variant": "S33A", "abundance fitness": "0.069 ± 0.041"}, {"variant": "S33R", "abundance fitness": "-0.147 ± 0.04"}, {"variant": "S33H", "abundance fitness": "-0.116 ± 0.13"}, {"variant": "S33C", "abundance fitness": "-0.057 ± 0.098"}, {"variant": "S33I", "abundance fitness": "-0.031 ± 0.052"}, {"variant": "N25R", "abundance fitness": "-0.052 ± 0.14"}, {"variant": "N25Q", "abundance fitness": "0.132 ± 0.24"}]}]}
